Article PMC6497099, “Structural basis for oligomerization of the prokaryotic peptide transporter PepTSo2” (Acta Crystallographica. Section F, Structural Biology …, 2019)

Legend:
[1] = target: the molecule itself; assay: SEC; purified PepTSo2 in DDM-containing buffer, Superose 6 Increase column, tryptophan fluorescence (excitation 280 nm, emission 350 nm)
[2] = target: the molecule itself; assay: SEC; fluorescence-detection SEC (FSEC) of the DDM-solubilised supernatant of E. coli cells mixed with the His tag-specific probe P3NTA (excitation 482 nm, emission 520 nm)

| Protein | stoichiometry N [1] | stoichiometry N [2] |
| --- | --- | --- |
| PepTSo2 from Shewanella oneidensis, purified, His6 tag cleaved by TEV protease (natural protein, S. oneidensis, full-length PepTSo2, Shewanella oneidensis, UniProt Q8EHE6; Detergent-solubilised (DDM) for SEC; in Salipro nanoparticles (saposin A, DMPG) for cryo-EM; in monoolein lipidic cubic phase for crystals; also called tetrameric PepTSo2; purified PepTSo2; source: E. coli Rosetta 2 (DE3), purified (DDM solubilisation, Ni-NTA, TEV cleavage, second Ni-NTA, SEC); not shown: His6, C-terminal, cleaved) MTLGTNQVSKTHSFMTVSLIELWERFGYYGMQALIVYFMVQRLGFDDSRANLVWSACAALIYVSPAIGGWVGDKILGTKRTMLLGAGILSVGYALMTVPTENTWFMFSALGVIVVGNGLFKPNAGNLVRKIYEGDDSKIDSAFTIYYMAVNVGSTFSMLLTPWIKDYVNAQYGNEFGWHAAFAVCCVGILVGLGNYALMHKSLANYGSEPDTRPVNKKSLAIVLALAALSVVASAIILEYEDVARVFVYAAGVAVLGIFFHLIRTSEPSERAGLIAALILTVQTVFFFIFYQQMSTSLALFALRNVDWDFQVFGTHLWTWSPAQFQALNPIWIMVLSPVLAWSYSWAGRNNKDFSIAAKFALGFAVVAIGFFIYGFAGQFAVNGKTSSWVMIWGYASYSLGELLVSGLGLAMIARYVPARMGGFMMGAYFVASGISQYLGGVVANFASVPQDLVDPLQTLPVYTNLFNKLGVAAVVCTIIALAVLPLMRRLTESHHAHSSIENNAAASLRDVKAEQLESSGENLYFQ | 4 | – |
| C-terminally His6-tagged full-length PepTSo2 (tag kept, FSEC screening) (natural protein, S. oneidensis, full-length PepTSo2, Shewanella oneidensis, UniProt Q8EHE6; cloning artifact with the TEV protease site, between PepTSo2 and the His6 tag (not cleaved in this experiment); Detected in FSEC by the histidine tag-specific fluorescent probe P3NTA; also called His6-tagged PepTSo2; His6 construct; source: E. coli Rosetta 2 (DE3) or C41 (DE3) with pRARE, DDM-solubilised supernatant of disrupted cells; …) MTLGTNQVSKTHSFMTVSLIELWERFGYYGMQALIVYFMVQRLGFDDSRANLVWSACAALIYVSPAIGGWVGDKILGTKRTMLLGAGILSVGYALMTVPTENTWFMFSALGVIVVGNGLFKPNAGNLVRKIYEGDDSKIDSAFTIYYMAVNVGSTFSMLLTPWIKDYVNAQYGNEFGWHAAFAVCCVGILVGLGNYALMHKSLANYGSEPDTRPVNKKSLAIVLALAALSVVASAIILEYEDVARVFVYAAGVAVLGIFFHLIRTSEPSERAGLIAALILTVQTVFFFIFYQQMSTSLALFALRNVDWDFQVFGTHLWTWSPAQFQALNPIWIMVLSPVLAWSYSWAGRNNKDFSIAAKFALGFAVVAIGFFIYGFAGQFAVNGKTSSWVMIWGYASYSLGELLVSGLGLAMIARYVPARMGGFMMGAYFVASGISQYLGGVVANFASVPQDLVDPLQTLPVYTNLFNKLGVAAVVCTIIALAVLPLMRRLTESHHAHSSIENNAAASLRDVKAEQLESSGENLYFQGQFTSSV | – | 4 |
